Results from publication PMC8934283 (Nature, 2022).

How the values were obtained:
Test in all cases: cryo-EM structure
[1] = target: ribosomal protein uS21 (E. coli, UniProt P68679 1-71)
[2] = target: ribosomal protein uS2 (E. coli, UniProt P0A7V0 1-241)
[3] = target: ribosomal protein uS5 (E. coli, UniProt P0A7W1 1-166)
[4] = target: ribosomal protein uS11 (E. coli, UniProt P0A7R9 1-129)
[5] = target: ribosomal protein uS3 (E. coli, UniProt P0A7V3 1-233)

Measured: binding result

B1: E. coli SmrB inactive mutant (99DLH101-ALA) (enzyme)
chain: MKKKTTLSEEDQALFRQLMAGTRKIKQDTIVHRPQRKKISEVPVKRLIQEQADASHYFSDEFQPLLNTEGPVKYVRPDVSHFEAKKLRRGDYSPELFLALAGLTQLQAKQELGALIAACRREHVFCACVMHGHGKHILKQQTPLWLAQHPHVMAFHQAPKEYGGDAALLVLIEVEEWLPPEL
binds: all assays above
